Measurements reported in US12030916 (AUCTUS BIOLOGICS, dated 2024).

Biological target: T1, RPtag small tight peptide (Nd2,P5A,E18A) with a C-terminal GGC sequence (C-terminal Cys reacted with maleimide-activated plate (immobilised))
T1 construct: also called RPtag small peptide; bait peptide
T1 peptide: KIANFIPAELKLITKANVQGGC
Test: capture ELISA, peptide immobilised on maleimide plate
Description: White Pierce™ Maleimide Activated Plates were washed 4× with 200 μL 50 mM phosphate pH 7.4, 150 mM NaCl, and reacted with 100 μL of RPtag small peptide that binds with high affinity to RPtag large. Specifically, RPtag small tight peptide (Nd2,P5A,E18A; […]; SEQ ID NO:5) with a C-terminal GGC sequence ([…] (SEQ ID NO:5)+GGC) dissolved in 50 mM phosphate pH 7.4, 150 mM NaCl, 10 mM EDTA overnight at room temperature as bait. Plates were then washed 4× in 50 mM phosphate pH 7.4, 150 mM NaCl, and blocked for 1 hour at room temperature with 10 mM L-Cys in the same buffer, washed 4× as before, and blocked for 1 hour at room temperature with 50 mM phosphate pH 7.4, 150 mM NaCl, 1% BSA, 0.05% Tween20 (blocking buffer).
Plates were washed 4× as before, serum samples were diluted 1:100 in blocking buffer, and then serum was incubated with the baited plates for 2 hours at room temperature. […]
To test for intact N-termini, wells were then washed 4× as before, and incubated with a 1:10,000 dilution of HRP-conjugated mouse anti-FLAG antibody (M2 clone, 1 mg/mL stock) from Sigma-Aldrich for 1 hour at room temperature. Samples were then washed 4× as before, and assayed using SuperSignal™ ELISA Femto Substrate measured using a Molecular Devices SpectraMax i3 plate reader in luminescence mode. […]

binding result: binds
B1: RPtag large-B12 construct (RPtag large with 3xFLAG tag, proline and Cys residue, B12-maleimide conjugated, 8xHis tag removed by TEV protease) (designed binder)
chain: KTIGLVISTLNNPFFVTLKNGAEEKAKELGYKIIVEDSQNDSSKELSNVEDLIQQKVDVLLINPVDSDAVVTAIKEANSKNIPVITIDRSANGGDVVSHIASDNVKGGEMAAEFIAKALKGKGNVVELEGIPGASAARDRGKGFDEAIAKYPDIKIVAKQAADFDRSKGLSVMENILQAQPKIDAVFAQNDEMALGAIKAIEAANRQGIIVVGFDGTEDALKAIKEGKMAATIAQQPALMGSLGVEMADKYLK
modifications: B12-maleimide covalently attached at the added Cys residue (47% labeling efficiency; the preparation is a mixture of free RPtag large and B12-RPtag large conjugate); position of the Cys not stated
notes: Construct expressed with N-terminal 8xHis tag and TEV site, both removed by TEV protease before use; In the assay it stood either in mouse serum after oral gavage or as a standard of known concentration; Formulated with 1 M D-ribose for dosing; also called B12-RPtag large conjugate; B12-RPtag conjugate; not shown: N-terminal leader left after TEV cleavage: 3xFLAG tag, a proline after it and a Cys …
